Data from publication PMC7072298 (2020).

Target: HSP90αM domain (solid phase assays of Figure 2B and 2C)
Test: ELISA

Kd [µM]	Binder
0.0651	N-terminal FN 30-kDa heparin-binding fragment (FN30) (domain or fragment) not shown
0.222	45-kDa gelatin-binding FN fragment (FN45) (domain or fragment) not shown
